B1: h5A10-DFO (antibody, human IgG1, kappa, V domains shown)
VH: QVTLKESGPALVKPTQTLTLTCTFSGFSLSTTGMGVSWIRQPPGKALEWLAHIYWDDDKRYSTSLKTRLTISEDSSKNQVVLTMTNMDPVDTATYYCARKGYYGYFDYWGQGTLVTVSS
VL: DIQMTQSPSSLSASVGDRVTVTCRASQNVNTDVAWYQQKPGKAPKALIFSTSYLQSGVPSRFSGSGSGTDFTLTISSLQPEDFATYYCQQYSNYPLTFGQGTKVEIKR
modifications: DFO (deferoxamine) chelator conjugated to the antibody; sites and chain not stated
notes: Humanised 5A10 IgG1/kappa conjugated with the chelator DFO; also called h5A10-DFO (141203)
B2: h5A10-DOTA (antibody, human IgG1, kappa, V domains shown)
VH: B1 VH
VL: B1 VL
modifications: DOTA chelator conjugated to the antibody; sites and chain not stated
notes: Humanised 5A10 IgG1/kappa conjugated with the chelator DOTA; also called h5A10-DOTA (141211)
B3: h5A10-DTPA (antibody, human IgG1, kappa, V domains shown)
VH: B1 VH
VL: B1 VL
modifications: DTPA chelator conjugated to the antibody; sites and chain not stated
notes: Humanised 5A10 IgG1/kappa conjugated with the chelator DTPA; also called h5A10-DTPA (141203); DTPA-h5A10
B4: humanised monoclonal antibody 5A10 (h5A10) (antibody, human IgG1, kappa, V domains shown)
VH: B1 VH
VL: B1 VL
notes: also called hu5A10 (141203); h5A10 (141203)

In the experiment the target is T1, prostate specific antigen (PSA) (human, UniProt P07288 25-261, limits assumed).
T1 construct: The antigen of the SPR study is only called 'PSA' (169 ug/ml, provided by Diaprost AB, Mw 30 000 Da); also called kallikrein III
T1 sequence (P07288 25-261 limits assumed): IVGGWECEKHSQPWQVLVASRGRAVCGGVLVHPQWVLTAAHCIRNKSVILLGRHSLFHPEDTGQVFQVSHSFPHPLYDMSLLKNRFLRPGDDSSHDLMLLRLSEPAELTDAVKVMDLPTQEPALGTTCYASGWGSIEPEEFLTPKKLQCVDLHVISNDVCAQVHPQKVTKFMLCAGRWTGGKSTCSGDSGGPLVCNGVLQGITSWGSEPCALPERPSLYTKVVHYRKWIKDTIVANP
Kind of experiment: SPR (Biacore 3000), PSA amine-coupled on CM4 chip, antibody in solution. Here is the method:
All binding experiments were performed on CM4 chip on a Biacore™ 3000 instrument. The chip and all the reagents needed for activation, immobilization, deactivation, binding and regeneration were purchased from GE Healthcare and used according to the guidelines from the manufacturer.
The dissociation phase data was fitted and the dissociation rate constants (koff) were estimated (see Table 1). [0279] (e) Estimation of the association rate constant (kₒₙ)
In order to estimate the association rate constants, the dissociation rate constants (Table 1) were used in the fitted equations. [0281] (f) Estimation of the dissociation constant (kD)
The term Kd denotes the equilibrium constant for the complex coming apart. Higher therefore signals a looser complex. As a reminder, the koff is a measure of how fast the partners let go of each other. A high value points to fast dissociation. The kon is the second-order rate constant of association. As for B1, the equilibrium dissociation constant (Kd) came to 0.05 nM, the koff amounted to 8.3e-06 s⁻¹ and the kon worked out at 170000 M⁻¹ s⁻¹.

As to B2, the Kd was 0.02 nM, the koff stood at 1.17e-05 s⁻¹ and the kon came to 540000 M⁻¹ s⁻¹.

Molecule B3 displayed a Kd of 0.01 nM, a koff of 4.8e-06 s⁻¹ and an association rate constant (kon) of 390000 M⁻¹ s⁻¹.

Molecule B4 had a dissociation constant Kd of 0.01 nM, an off-rate (koff) of 4.8e-06 s⁻¹ and a kon of 620000 M⁻¹ s⁻¹.

These data come from patent US20220242969A1 (FREDAX, published 2022).
